According to US20260028422A1 (CONCEPT TO MEDICINE BIOTECH, published 2026):
Where two headings read alike, the source gives them in different places.

T1: human MerTK expressed on cells (human, UniProt Q12866 21-999)
T1 construct: whole, on cells; also called CHO-K1-hMerTK; CHO-K1-MerTK
T1 sequence (looked up): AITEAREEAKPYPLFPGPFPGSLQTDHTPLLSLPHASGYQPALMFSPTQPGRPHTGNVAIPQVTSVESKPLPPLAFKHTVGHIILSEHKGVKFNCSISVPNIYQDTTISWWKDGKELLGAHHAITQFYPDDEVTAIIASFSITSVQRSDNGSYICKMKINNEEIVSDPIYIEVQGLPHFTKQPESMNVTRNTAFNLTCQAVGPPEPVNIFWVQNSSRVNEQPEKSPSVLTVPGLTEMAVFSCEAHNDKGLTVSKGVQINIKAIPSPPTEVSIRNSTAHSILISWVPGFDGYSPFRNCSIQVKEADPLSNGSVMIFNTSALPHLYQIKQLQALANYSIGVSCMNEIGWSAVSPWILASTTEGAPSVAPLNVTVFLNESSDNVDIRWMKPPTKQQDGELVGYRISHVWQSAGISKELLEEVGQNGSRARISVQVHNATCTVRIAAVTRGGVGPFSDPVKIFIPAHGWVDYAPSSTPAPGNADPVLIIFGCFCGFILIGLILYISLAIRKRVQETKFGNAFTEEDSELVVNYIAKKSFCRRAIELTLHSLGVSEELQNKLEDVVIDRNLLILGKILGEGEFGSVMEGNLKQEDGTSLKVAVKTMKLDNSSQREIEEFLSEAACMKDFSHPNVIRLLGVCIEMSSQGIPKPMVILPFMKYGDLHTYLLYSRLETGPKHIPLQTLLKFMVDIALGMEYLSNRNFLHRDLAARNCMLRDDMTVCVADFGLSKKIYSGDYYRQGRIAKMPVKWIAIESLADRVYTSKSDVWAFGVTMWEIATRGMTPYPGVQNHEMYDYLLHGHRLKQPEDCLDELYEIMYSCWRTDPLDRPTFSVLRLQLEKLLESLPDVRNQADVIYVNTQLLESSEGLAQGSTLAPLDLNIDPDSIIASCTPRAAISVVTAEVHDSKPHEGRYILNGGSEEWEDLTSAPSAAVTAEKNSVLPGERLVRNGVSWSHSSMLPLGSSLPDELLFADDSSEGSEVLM

T2: human MerTK-his protein (human, UniProt Q12866 21-505)
T2 construct: extracellular domain; also called hMerTK-His; human MerTK protein
T2 sequence (looked up): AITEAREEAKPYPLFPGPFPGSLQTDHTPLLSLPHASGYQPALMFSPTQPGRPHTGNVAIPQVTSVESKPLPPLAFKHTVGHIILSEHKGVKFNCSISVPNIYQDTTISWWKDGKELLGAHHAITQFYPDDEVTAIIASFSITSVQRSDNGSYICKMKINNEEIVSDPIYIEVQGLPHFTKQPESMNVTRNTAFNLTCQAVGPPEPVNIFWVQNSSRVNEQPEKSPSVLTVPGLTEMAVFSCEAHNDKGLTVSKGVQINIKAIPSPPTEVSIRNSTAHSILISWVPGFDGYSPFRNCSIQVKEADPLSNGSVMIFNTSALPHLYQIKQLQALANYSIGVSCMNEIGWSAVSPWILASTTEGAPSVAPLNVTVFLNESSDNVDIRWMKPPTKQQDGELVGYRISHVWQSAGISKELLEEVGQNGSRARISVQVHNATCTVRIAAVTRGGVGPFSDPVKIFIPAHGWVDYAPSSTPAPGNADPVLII


Tests used:
[1] = target: T1, human MerTK expressed on cells; experiment: FACS on CHO-K1 cells overexpressing human MerTK, MFI (AF488)
human MerTK-his protein [2] = target: T2, human MerTK-his protein; experiment: SPR Biacore 8K, antibody captured on Protein A chip, 50 nM antigen
Procedure: To explore whether the humanized antibodies could maintain their binding kinetics, affinity ranking were performed with Biacore™. The antibodies were captured with a Protein A chips. Human MerTK-his protein at 50 nM was injected over captured antibodies for 180 s at a flow rate of 30 μL/min. The antigen was allowed to dissociate for 600 s. The experiment was carried out on a Biacore™ 8K. Data analysis was carried out using Biacore™ 8K evaluation software.

human MerTK-his protein [3] = target: T2, human MerTK-his protein; experiment: ELISA, plate coated with human MerTK-his, OD 450nm
Procedure: (§1) To evaluate the binding activity, the chimeric mAbs were subjected to ELISA test. Briefly, 96-well plates were coated with human or cyno MerTK-his protein at 2 μg/mL in PBS, 100 μL/well at 4° C. overnight, then blocked with 150 μL/well of 1% BSA. Five-fold dilutions of MerTK antibodies starting from 20 nM were added to each well and incubated for 1 hour at room temperature. The plates were washed with PBS/Tween-20 and then incubated with goat anti-human IgG Fe antibody conjugated with Horse Radish Peroxidase (HRP) for 30 minutes (mins) at room temperature. After washing, the plates were developed with TMB substrate and subsequent stop solution was added to complete the reaction. The signal from each well was read by spectrophotometer at OD 450 nm.
(§2) To evaluate the antigen binding activity, the humanized antibodies were subjected to ELISA test as described before.

[4] = target: T1, human MerTK expressed on cells; experiment: FACS on CHO-K1 cells overexpressing human MerTK, MFI (AF488); remark: listed apart in the source
human MerTK-his protein [5] = target: T2, human MerTK-his protein; experiment: ELISA, plate coated with human MerTK-his, OD 450nm; remark: listed apart in the source
Procedure: as §1, §2

EC50 [1] | Kd (human MerTK-his protein [2]) | koff (human MerTK-his protein [2]) | kon (human MerTK-his protein [2]) | EC50 (human MerTK-his protein [3]) | EC50 [4] | EC50 (human MerTK-his protein [5]) | Binder
190 pM | 1640 pM | 0.00031 s⁻¹ | 189000 M⁻¹ s⁻¹ | 52 pM |  |  | 265F11B5Hu-12 (antibody, V domains shown) VH: QVQLVQSGAEVKKPGASVKVSCKASGYTFTTYDINWVRQAPGQGLEWIGWIYPRDGYTKYNEKFKGRATLAVDTSTSTAYMELRSLRSDDTAVYFCTRGYYDNLYYFDYWGQGTTVTVSS VL: EIVLTQSPDFQSVTPKEKVTITCSASSIISSNYFHWYQQKPDQSPKLLIYRTSNLASGVPSRFSGSGSGTDYTLTINSLEAEDAATYYCQQGRSVPLTFGQGTKLEIK
 | 2190 pM | 0.000475 s⁻¹ | 217000 M⁻¹ s⁻¹ |  | 850 pM | 94 pM | 254B4D9Hu-1 (antibody, V domains shown) VH: QVQLVQSGSELKKPGASVKVSCKASGYTFTAYGMSWVKQAPGQGLQWMGWINTYSGVPTYTDDFKGRFVFSLDTSVSTAFLQISSLKAEDTAVYFCARRAAVVAKYWYFDVWGQGTTVTVSS VL: DIQMTQSPSSLSASVGDRVTITCKSSQDINKRISWYQQKPGKAPKLLIHSTSSLQPGVPSRFSGSGSGRDFTFTISSLQPEDIATYFCLQYDNLLTFGQGTKLEIK
 | 10900 pM | 0.000592 s⁻¹ | 54100 M⁻¹ s⁻¹ |  | 1100 pM | 64 pM | 254B4D9Hu-2 (antibody, V domains shown) VH: QVQLVQSGHEVKQPGASVKVSCKASGYSFTAYGMSWVKQAPGQGLQWMGWINTYSGVPTYTDDFKGRFVFSLDTSASTAFLQISSLKAEDMAMYFCARRAAVVAKYWYFDVWGQGTTVTVSS VL: DIQMTQSPSSLSASVGDRVTITCKSSQDINKRISWYQQKPGKAPKLLIHSTSSLQPGVPSRFSGSGSGRDFTFTISSLQPEDIATYFCLQYDNLLTFGQGTKLEIK
